Common to all, as to assay type: cell-based, human
Experiment [1] has as its system MCF-7 cells. The experiment in a line: Proliferation of MCF-7 cells in monolayer (liquid) culture, viable cell count. The conditions noted are these: for mean inhibition of cell proliferation: MCF-7, 7 days exposure, LIF 1000 U/ml, IL-6 100 ng/ml, OSM 10 ng/ml, IL-11 100 ng/ml, vs untreated control; for effect on cell proliferation (in words): MCF-7 / MCF-7M, up to 1 week culture. On the procedure:
FIGS. 2A, B and C are graphical representations of MCF-7M cells in liquid culture. 10^4 MCF-7M cells were cultured in 500 μl RPMI/10% bovine calf serum (BCS) (v/v) containing the indicated concentration of each of the growth factors (OSM or LIF). After 7 days culture viable cells were counted using a hemacytometer. Cell numbers reported here are the result of one experiment, each performed in triplicate.
FIG. 7 is a graphical representation showing inhibition of proliferation of MCF-7 cells by Oncostatin M (OSM). 10^4 MCF-7 cells were cultured in 500 μl RPMI/10% (v/v) BCS with the indicated concentrations of OSM. At 2, 4 and 6 days, viable cells were counted using a hemacytometer. Results are from 3 experiments, each performed in triplicate.
FIG. 8 is a graphical representation showing that MCF-7 cells are inhibited in a dose-dependent fashion by Oncostatin M (OSM). 10^4 MCF-7 cells were cultured in 500 μl RPMI/10% (v/v) BCS with the indicated concentrations of OSM. After 7 days viable cells were counted, and cell number expressed as a percentage of the corresponding untreated control value.
FIG. 16 is a graphical representation showing inhibition of MCF-7 cells after 7 days in suspension culture. 10^4MCF-7 cells were cultured in 500 μl RPMI/10% (v/v) BCS with the indicated growth factor. After 7 days viable cells were counted using a hemacytometer. Results are from 9 experiments, each performed in triplicate.
(§1) Proliferation of the cell lines was measured in monolayer culture in 24 well Costar cluster plates. Cells were plated at an initial density of 10 000 cells/ml and cultured in 500 μl RPMI-1640 supplemented with 10% (v/v) (v/v) BCS and with each growth factor as indicated (LIF, 1000 U/ml; IL-6, 100 ng/ml; OSM, 10 ng/ml; CNTF, 10 ng/ml; IL-11, 100 ng/ml). These concentrations are maximally active in other systems (Nandurkar et al., 1996; Hilton et al., 1994; Zhang et al., 1994; Tanigawa et al., 1995). After 7 or 10 days at 37° C. in a fully humidified atmosphere containing 10% (v/v) CO2 in air, cells were trypsinised and counted using a haemocytometer and an inverted microscope. Cell viability was assessed using eosin exclusion. Results were expressed as a percentage of the corresponding untreated control value for that experiment.

The test system of experiment [2] is MCF-7 cells. The experiment in a line: Clonogenic assay in agar after monolayer culture. The conditions noted are these: MCF-7, 7 days monolayer then 14 days agar. On the procedure: FIG. 3 is a graphical representation showing clonogenicity of MCF-7M cells. Following suspension culture MCF-7M cell viability was measured by agar culture. Cells were plated in agar with the indicated concentrations of each of the growth factors. After 14 days culture colonies of cells were counted. Cell numbers reported here are the results of 3 experiments, each performed in triplicate, and are expressed according to the number of cells that went into suspension culture.
FIG. 17 is a graphical representation showing clonogenicity of MCF-7 cells after 1 week in suspension culture. Following suspension culture clonogenicity of MCF-7 cells was assayed in agar culture. Cells were plated in agar with the indicated growth factor and maintained at 37° C0 in a humidified incubator with 5% CO2 in air. After 14 days colonies of cells were counted. Results are from 9 experiments using IL-6, LIF and OSM, and 5 experiments using CNTF and IL-11. Each experiment was performed in triplicate, and colony numbers are expressed as a percentage of untreated controls.
Clonogenic potential of cells following monolayer culture was assessed in a semi-solid culture medium. Cells were cultured in triplicate in 35 mm Petri dishes containing 1 ml Iscove's modified Dulbecco's medium (IMDM) supplemented with 25% (v/v) (v/v) BCS, 0.3% (w/v) agar with final concentration of growth factor as outlined above, and with 200 cells per ml for control cultures Cultures were maintained at 37° C. in a humidified incubator with 5% (v/v) CO2 in air. After 14 days, colonies were enumerated using a dissecting microscope. A colony was defined as a clone of greater than 40 cells. All cultures were performed in triplicate.

Experiment [3] deals with MCF-7 cells. The experiment in a line: Cell morphology after exposure to growth factor. The conditions noted are these: MCF-7 / MCF-7M, 6-14 days in growth factor. From the text:
FIG. 4 is a photographic representation showing morphology of growth factor stimulated MCF-7M cells. Following 1 week in suspension culture containing the various growth factors, MCF-7M cells were cytospun onto slides and subsequently stained with Giemsa.
FIG. 11 is a photographic representation showing cell morphology after exposure to OSM. MCF-7 cells from control cultures and appears of cells after 7 days in OSM. A) Control cells, 10× magnification. B) OSM treated cells, 10× magnification. C) OSM treated cells, 40× magnification. D) OSM treated cells, 100× magnification.
FIG. 15 is a photographic representation showing cell morphology after exposure to OSM. MCF-7 cells from control cultures (Panel A) and appearance of cells after culture for 14 days in OSM (10 ng/ml) (Panel B). MDA-MB-231 cells from control cultures (Panel C) and appearance of cells after culture for 7 days in OSM (Panel D).

Experiment [4] concerns four breast cancer cell lines. Nature of the experiment: Proliferation of four breast cancer cell lines in monolayer culture (summary). On the procedure: as §1
Experiments were performed to determine whether these morphological changes were associated with alterations in cell growth. The proliferation of four breast cancer cell lines was examined in monolayer cultures containing either IL-6, LIF, OSM, CNTF or IL-11.

Another experiment relates to MDA-MB-231 cells. The experiment in a line: Proliferation of MDA-MB-231 cells in culture, viable cell count. As to conditions: MDA-MB-231. On the procedure: FIG. 19 is a graphical representation showing MDA-MB-231 cells after 7 days in suspension culture. 10^4MDA-MB-231 cells were cultured in 500 μl RPMI/10% (v/v) BCS with the indicated growth factor. After 7 days viable cells were counted using a hemacytometer. Results are from 8 experiments, each performed in triplicate.
as §1

A further experiment relates to BT-549 cells. The experiment in a line: Proliferation of BT-549 cells in culture, viable cell count. On the procedure: FIGS 5A and B are graphical representations of BT-549 cells in liquid culture. 10^4 BT-549 cells were cultured in 500 μl RPMI/10% (v/v) BCS containing the relevant concentration of each of the growth factors (OSM, IL-11 and IL-6). After 10 days, culture viable cells were counted using a hemacytometer. Cell numbers reported here in the two graphs are the results of 1 experiment performed in triplicate.
FIG. 18 is a graphical representation showing BT-549 cells after 10 days in suspension culture. 10^4BT-549 cells were cultured in 500 μl RPMI/10% (v/v) BCS with the indicated growth factor. After 10 days culture viable cells were counted using a hemacytometer. Results are from 6 experiments, each performed in triplicate.
as §1

interleukin-6 [IL-6]: in the experiment on MCF-7 cells [1], the “mean inhibition of cell proliferation” value turned out to be 23% and the “effect on cell proliferation (in words)” value was “did not appear to be able to induce inhibition”. Also, the “effect on colony formation / clonogenic potential (in words)” value in the experiment with MCF-7 cells [2] is reported as “significant reduction of colony formation”. Also, the “cell morphology (in words)” value with MCF-7 cells [3] is recorded as “morphologically similar to the control”. Moreover, the “cell lines with significant inhibition of cellular proliferation” value in experiment [4] is on record as “¼”.

B1: ciliary neurotrophic factor (protein, UniProt P26441 1-200, looked up)
Ciliary neurotrophic factor: MAFTEHSPLTPHRRDLCSRSIWLARKIRSDLTALTESYVKHQGLNKNINLDSADGMPVASTDQWSELTEAERLQENLQAYRTFHVLLARLLEDQQVHFTPTEGDFHQAIHTLLLQVAAFAYQIEELMILLEYKIPRNEADGMPINVGDGGLFEKKLWGLKVLQELSQWTVRSIHDLRFISSHQTGIPARGSHYIANNKKM
notes: human CNTF purchased from AMRAD Operations Ltd; cytokine
Regarding B1, the “effect on cell proliferation (in words)” value in the experiment with MCF-7 cells [1] was “no effect on cellular proliferation”. Moreover, the “effect on colony formation / clonogenic potential (in words)” value with MCF-7 cells [2] is “no effect on clonogenic potential”. For the same molecule, in the experiment with MDA-MB-231 cells, the “effect on cellular proliferation (in words)” value was “did not respond”.

B2: interleukin-11 (protein, UniProt P20809 22-199, looked up)
Interleukin-11: PGPPPGPPRVSPDPRAELDSTVLLTRSLLADTRQLAAQLRDKFPADGDHNLDSLPTLAMSAGALGALQLPGVLTRLRADLLSYLRHVQWLRRAGGSSLKTLEPELGTLQARLDRLLRRLQLLMSRLALPQPPPDPPAPPLAPPSSAWGGIRAAHAILGGLHLTLDWAVRGLLLLKTRL
notes: human IL-11 purchased from Pepro Tech; cytokine
With B2, the “mean inhibition of cell proliferation” value with MCF-7 cells [1] was 27%. In addition, the “effect on colony formation / clonogenic potential (in words)” value with MCF-7 cells [2] is recorded as “did not have detectable effect on subsequent clonogenicity”. Also, the “effect on cell proliferation (in words)” value with BT-549 cells (BT-549) is reported as “inhibited”. The molecule further came in with a mean growth inhibition in the experiment on BT-549 cells (BT-549, 7 days) of 30%. In addition, in the experiment on BT-549 cells (BT-549, 10 days), the “growth inhibition, up to (maximum observed)” value is on record as “up to 63%” and the mean growth inhibition was determined as 56%. The “cell lines with significant inhibition of cellular proliferation” value in experiment [4] is reported as 2/4.
